# According to patent US20140120095A1 (Boehringer Ingelheim, published 2014):
# T1: human DLL1 (human, UniProt O00548 18-545, limits assumed)
# T1 construct: also called hDLL1
# T1 sequence (looked up): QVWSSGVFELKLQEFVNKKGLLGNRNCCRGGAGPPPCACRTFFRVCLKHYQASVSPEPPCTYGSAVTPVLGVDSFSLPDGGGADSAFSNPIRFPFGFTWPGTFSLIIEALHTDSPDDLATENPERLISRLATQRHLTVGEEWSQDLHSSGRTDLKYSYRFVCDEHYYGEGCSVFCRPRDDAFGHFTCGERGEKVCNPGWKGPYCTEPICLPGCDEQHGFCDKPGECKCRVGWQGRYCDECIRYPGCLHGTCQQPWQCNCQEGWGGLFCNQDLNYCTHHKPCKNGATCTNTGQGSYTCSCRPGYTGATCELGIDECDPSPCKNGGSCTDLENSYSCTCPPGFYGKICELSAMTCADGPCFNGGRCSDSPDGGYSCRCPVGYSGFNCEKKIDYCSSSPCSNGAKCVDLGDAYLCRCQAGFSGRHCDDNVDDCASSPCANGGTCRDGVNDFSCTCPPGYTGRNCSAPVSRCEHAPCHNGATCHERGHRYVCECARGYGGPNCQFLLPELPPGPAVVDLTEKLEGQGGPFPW
# What was measured:
# [1] = target: T2, human DLL4 overexpressed on cells (human, UniProt Q9NR61 27-685); assay: cell-based or functional assay
# recombinant human DLL4 [2] = target: T3, recombinant human DLL4 (human, UniProt Q9NR61 25-522); assay: Biacore, VHH on chip, 200 nM DLL4 sample injected
# T3 construct: also called rhDLL4; hDLL4
# hDLL4.3 = hDLL4.3 (human); assay: Biacore, VHH on chip, 200 nM DLL4 sample injected
# hDLL4.5 = hDLL4.5 (human); assay: Biacore, VHH on chip, 200 nM DLL4 sample injected
# hDLL4.6 = hDLL4.6 (human); assay: Biacore, VHH on chip, 200 nM DLL4 sample injected
# mDLL4.11 = mDLL4.11 (mouse); assay: Biacore, VHH on chip, 200 nM DLL4 sample injected
# recombinant mouse DLL4 = target: T4, recombinant mouse DLL4 (mouse, UniProt Q9JI71 27-532); assay: Biacore, VHH on chip, 200 nM DLL4 sample injected
# T4 construct: extracellular domain; also called rmDLL4; mDLL4
# recombinant human DLL4 [3] = target: T3, recombinant human DLL4; assay: SPR Biacore T100, hDLL4 on chip, VHH/Fab injected
# [4] = target: T2, human DLL4 overexpressed on cells; assay: FMAT, labelled hNotch1-Fc on CHO-hDLL4, periplasmic extract
# Description: All calculations are based on the FL1_total signal which comprises the average of the fluorescence per well times the number of counts per well.
# human DLL1 = target: T1, human DLL1; assay: binding ELISA on coated recombinant human DLL1, OD 405 nm
# Summary of the method: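 Plates coated overnight at 4° C with 1 μg/mL ligand, blocked with 1% casein in PBS. VHH dilution series applied; bound VHH detected via mouse anti-myc then anti-mouse-AP conjugate.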
# [5] = target: T5, human DLL4 expressed on cells (CHO-hDLL4; HEK293-hDLL4) (human, UniProt Q9NR61 27-685); assay: cell-based or functional assay
# [6] = target: T6, recombinant human DLL4 (C-terminally His-tagged extracellular domain, R&D Systems) (human, UniProt Q9NR61 25-522, biotinylated in the competition ELISA); assay: cell-based or functional assay
# [7] = target: T6, recombinant human DLL4 (C-terminally …); assay: SPR (Biacore), recombinant human DLL4
# [8] = target: T5, human DLL4 expressed on cells …; assay: competition FMAT, labelled hNotch1-Fc on CHO-hDLL4 cells
# human Jagged-1 (Alexis) = target: T7, human Jagged-1 (Alexis) (human, UniProt P78504 34-1067, limits assumed); assay: binding ELISA on coated human Jagged-1 (Example 5.8, Example 7), OD 405 nm
# T7 construct: also called hJag-1; hJAG1
# [9] = target: T6, recombinant human DLL4 (C-terminally …); assay: binding ELISA on coated recombinant human DLL4 (Example 5.8, Example 7), OD 450 nm
# T4 sequence (Q9JI71 27-532): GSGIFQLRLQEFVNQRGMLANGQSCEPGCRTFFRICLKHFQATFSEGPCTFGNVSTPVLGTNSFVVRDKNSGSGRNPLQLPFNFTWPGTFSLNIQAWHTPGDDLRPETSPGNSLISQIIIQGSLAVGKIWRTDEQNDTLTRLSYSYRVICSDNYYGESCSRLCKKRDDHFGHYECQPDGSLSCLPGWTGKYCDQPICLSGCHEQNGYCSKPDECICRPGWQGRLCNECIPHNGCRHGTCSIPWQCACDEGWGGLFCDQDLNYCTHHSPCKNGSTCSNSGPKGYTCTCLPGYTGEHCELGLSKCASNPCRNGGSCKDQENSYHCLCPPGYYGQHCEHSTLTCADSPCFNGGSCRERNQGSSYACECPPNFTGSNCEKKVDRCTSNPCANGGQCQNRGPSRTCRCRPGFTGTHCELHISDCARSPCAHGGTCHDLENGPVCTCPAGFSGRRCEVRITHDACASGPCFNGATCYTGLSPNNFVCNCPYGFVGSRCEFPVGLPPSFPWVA
Binder,"IC50, DLL4/Notch1 reporter assay [1] [nM]",Binding (RU) (recombinant human DLL4 [2]),koff (recombinant human DLL4 [2]) [s⁻¹],Binding (RU) (hDLL4.3),koff (hDLL4.3) [s⁻¹],Binding (RU) (hDLL4.5),koff (hDLL4.5) [s⁻¹],Binding (RU) (hDLL4.6),koff (hDLL4.6) [s⁻¹],Binding (RU) (mDLL4.11),koff (mDLL4.11) [s⁻¹],Binding (RU) (recombinant mouse DLL4),koff (recombinant mouse DLL4) [s⁻¹],Kd (recombinant human DLL4 [3]) [nM],koff (recombinant human DLL4 [3]) [s⁻¹],kon (recombinant human DLL4 [3]) [M⁻¹ s⁻¹],EC50 (read off the curve) [9] [nM],binding result (human Jagged-1 (Alexis)),other results
"DLLBII101G08 (VHH, also called 101G8; DLLBII101G8) VHH: EVQLVESGGGLVQAGGSLRLSCAASGRTFSSYAMAWFRQAPGKEREFVAAIRWSGGTAYYADSVQGRFTISRDNAKNTVYLQMNSLKPEDTAVYYCANRAADTRLGPYEYDYWGQGTQVTVSS",2760,373,0.002,198,0.00465,266,0.00219,229,0.0022,210,0.00616,502,0.006,52,0.0022,43000,,,% inh [4]: 91%; binding result (human DLL1): no binding (tested: 5e-7 M)
"DLLBII129B05 (VHH, not shown: small tags and cut ends) VHH: EVQLVESGGGLVQAGGSLRLSCAASGRTFSSYAMAWYRQAPGKEREYVAAIRWSGGTAYYADSVQGRFTISRDNAKNTVYLQMNSLKPEDTAVYYCANRAPDTRLAPYEYDHWGQGTQVTVSS",,,,,,,,,,,,,,,,,,,"IC50, DLL4-mediated reporter assay (hDLL4) [5]: 108 nM; IC50, DLL4-mediated HUVEC proliferation assay [6]: 3.7 nM; Inhibition (%), DLL4-mediated HUVEC proliferation assay [6]: 100%; Kd [7]: 0.2 nM; koff [7]: 7.9e-05 s⁻¹; kon [7]: 340000 M⁻¹ s⁻¹; IC50 [8]: 8.2 nM"
"DLLBII136C07 (VHH, not shown: small tags and cut ends) VHH: EVQLVESGGGLVQPGGSLRLSCAASGFTFGSYDMSWVRRSPGKGPEWVSSINSGGGSTYYADYVKGRFTISRDNAKNTLYLQMNSLKPEDTAVYYCAADRYIWARQGEYWGAYEYDYWGQGTQVTVSS",,,,,,,,,,,,,,,,,~0.6,no binding (tested: log[M] -6.1 (about 8e-7 M)),"IC50, DLL4-mediated reporter assay (hDLL4) [5]: 112 nM; IC50, DLL4-mediated HUVEC proliferation assay [6]: 14.5 nM; Inhibition (%), DLL4-mediated HUVEC proliferation assay [6]: 100%; Kd [7]: 1 nM; koff [7]: 0.00052 s⁻¹; kon [7]: 550000 M⁻¹ s⁻¹; IC50 [8]: 11.4 nM"
"DLLBII015 (VHH, not shown: small tags and cut ends) VHH: EVQLVESGGGLVQPGGSLRLSCAASGFTIGSYDMSWVRRSPGKGPEWVSAINSGGGSTYYADYVKGRFTISRDNAKNTLYLQMNSLKPEDTAVYYCAADRYIWARQGEYWGAYAYDYWGQGTQVTVSS",,,,,,,,,,,,,,,,,~0.6,no binding (tested: log[M] -6.1 (about 8e-7 M)),
"DLLBII56A09 (VHH, also called 56A9; DLLBII56A9) VHH: EVQLVESGGGLVQPGGSLRLSCAASGFTFDDYAIGWFRQAPGKEPEGISCISSSGGITYYADSVKGRFTTSRDNAKNTVYLQMNSLKPEDTAVYYCATPGIAACRGIHYTGQGTQVTVSS",540,281,0.00095,125,0.00074,143,0.0012,136,0.0011,132,0.0016,389,0.0019,5.6,0.00093,170000,,,

# Second part, led by results:
"IC50, DLL4/Notch1 reporter assay [1] [nM]",Binding (RU) (recombinant human DLL4 [2]),koff (recombinant human DLL4 [2]) [s⁻¹],Binding (RU) (hDLL4.3),koff (hDLL4.3) [s⁻¹],Binding (RU) (hDLL4.5),koff (hDLL4.5) [s⁻¹],Binding (RU) (hDLL4.6),koff (hDLL4.6) [s⁻¹],Binding (RU) (mDLL4.11),koff (mDLL4.11) [s⁻¹],Binding (RU) (recombinant mouse DLL4),koff (recombinant mouse DLL4) [s⁻¹],Kd (recombinant human DLL4 [3]) [nM],koff (recombinant human DLL4 [3]) [s⁻¹],kon (recombinant human DLL4 [3]) [M⁻¹ s⁻¹],EC50 (read off the curve) [9] [nM],Binder,binding result (human Jagged-1 (Alexis)),other results
1740,324,0.0035,137,0.0035,162,0.0042,152,0.0041,121,0.0066,344,0.0065,25,0.0039,150000,,"DLLBII115A05 (VHH, also called 115A5; DLLBII115A5) VHH: EVQLVESGGGLVQPGGSLRLSCAASGFTFGSYDMSWVRRSPGKGPEWVSSINSGGGSTYYADFVKGRFTISRDNAKNTLYLQMNSLKPEDTAVYYCAADRYIRARQGDYWGAYEYDYWGQGTQVTVSS",,% inh [4]: 74%; binding result (human DLL1): no binding (tested: 5e-7 M)
,,,,,,,,,,,,,,,,~0.6,"DLLBII133A09 (VHH, not shown: small tags and cut ends) VHH: EVQLVESGGGLVQPGGSLRLSCAASGFTFGSYDMSWVRRSPGKGPEWVSAINSGGGSTYYADYVKGRFTISRDNAKNTLYLQMNSLKPEDTAVYYCAADRYIWARQGEYWGAYAYDYWGQGTQVTVSS",no binding (tested: log[M] -6.1 (about 8e-7 M)),
,,,,,,,,,,,,,,,,~0.4,"DLLBII133G05 (VHH, not shown: small tags and cut ends) VHH: EVQLVESGGGLVQPGGSLRLSCAASGFTFGSYDMSWVRRSPGKGPEWVSAINSGGGSTYYTDYVKGRFTISRDNAKNTLYLQMNSLKPEDTAVYYCAADRYIWARQGEYWGAYAYDYWGQGTQVTVSS",no binding (tested: log[M] -6.1 (about 8e-7 M)),
